Experimental data: patent publication US20260151494A1 (ARO BIOTHERAPEUTICS, published 2026)
Where a chain is given by its changes, count along the chain named.

B1: CD71-binding FN3 domain SEQ ID NO 404 (designed binder)
chain: MLPAPKNLVVSRVTEDSARLSWTAPDAAFDSFFIGYLEPQPPGEAIHLLVPGSERSYDLTGLKPGTEYNVTIQGVKGGFPSEPLLAIVTT
B2: CD71-binding FN3 domain SEQ ID NO 427 (designed binder)
chain: B1 chain with L49R, E82D, L85I, I87V, V88F
B3: CD71-binding FN3 domain SEQ ID NO 435 (designed binder)
chain: B1 chain with H47A, L49W, E82H, L85A, I87V, V88F
B4: CD71-binding FN3 domain SEQ ID NO 423 (designed binder)
chain: B1 chain with H47A, L49Y, L85V, I87T, V88F
B5: CD71-binding FN3 domain SEQ ID NO 431 (designed binder)
chain: B1 chain with H47V, L49F, E82N, L85S, V88S
B6: CD71-binding FN3 domain SEQ ID NO 432 (designed binder)
chain: B1 chain with H47A, L49Y, E82G, L85E, I87Y, V88F
B7: CD71-binding FN3 domain SEQ ID NO 412 (designed binder)
chain: B1 chain with H47G, E82H, I87V, V88F
B8: CD71-binding FN3 domain SEQ ID NO 434 (designed binder)
chain: B1 chain with H47G, L49Q, E82D, L85Q, V88F
B9: CD71-binding FN3 domain SEQ ID NO 433 (designed binder)
chain: B1 chain with H47A, L49Y, E82L, L85E, I87N, V88F
B10: CD71-binding FN3 domain SEQ ID NO 410 (designed binder)
chain: B1 chain with H47A, L49W, E82Q, L85H, I87H, V88F
B11: CD71-binding FN3 domain SEQ ID NO 411 (designed binder)
chain: B1 chain with H47S, L49F, E82V, L85S, I87T, V88F
B12: CD71-binding FN3 domain SEQ ID NO 416 (designed binder)
chain: B1 chain with H47A, L49Y, E82L, L85V, I87T, V88F
B13: CD71-binding FN3 domain SEQ ID NO 430 (designed binder)
chain: B1 chain with H47D, L49W, E82Y, L85S, I87S, V88F
B14: CD71-binding FN3 domain SEQ ID NO 417 (designed binder)
chain: B1 chain with H47Q, L49F, E82D, L85V, I87S, V88F
B15: CD71-binding FN3 domain SEQ ID NO 419 (designed binder)
chain: B1 chain with H47A, E82S, L85N, I87Y, V88F
B16: CD71-binding FN3 domain SEQ ID NO 428 (designed binder)
chain: B1 chain with H47S, L49Y, E82N, L85I, I87Q, V88F
B17: CD71-binding FN3 domain SEQ ID NO 437 (designed binder)
chain: B1 chain with H47S, L49W, E82T, L85S, I87K, V88F
B18: CD71-binding FN3 domain SEQ ID NO 405 (designed binder)
chain: B1 chain with L49W, E82L, L85S, I87F, V88F
B19: CD71-binding FN3 domain SEQ ID NO 424 (designed binder)
chain: B1 chain with L49I, E82D, L85D, I87S, V88F
B20: CD71-binding FN3 domain SEQ ID NO 421 (designed binder)
chain: B1 chain with H47D, L49W, E82M, L85E, I87V, V88F
notes: The cell prints '42'
B21: CD71-binding FN3 domain SEQ ID NO 414 (designed binder)
chain: B1 chain with L49Y, E82H, L85I, I87N, V88F
B22: CD71-binding FN3 domain SEQ ID NO 415 (designed binder)
chain: B1 chain with L49Q, E82M, L85S, V88F
B23: CD71-binding FN3 domain SEQ ID NO 413 (designed binder)
chain: B1 chain with H47Y, L49R, E82A, L85H, I87H, V88F
B24: CD71-binding FN3 domain SEQ ID NO 426 (designed binder)
chain: B1 chain with H47F, E82M, L85S, V88F
B25: CD71-binding FN3 domain SEQ ID NO 425 (designed binder)
chain: B1 chain with H47G, E82N, L85S, V88F
B26: CD71-binding FN3 domain SEQ ID NO 408 (designed binder)
chain: B1 chain with H47G, L49W, E82M, L85S, V88F
B27: CD71-binding FN3 domain SEQ ID NO 436 (designed binder)
chain: B1 chain with L85W, I87K, V88F
B28: CD71-binding FN3 domain SEQ ID NO 420 (designed binder)
chain: B1 chain with L49Q, Q73H, F79I, E82M, L85S, I87K, V88F
B29: CD71-binding FN3 domain SEQ ID NO 422 (designed binder)
chain: B1 chain with H47S, E82H, L85D, I87S, V88F
B30: CD71-binding FN3 domain SEQ ID NO 409 (designed binder)
chain: B1 chain with L49F, E82N, L85S, I87Q, V88F

Each binder was assayed against T1, human apical domain of CD71 (human, UniProt P02786 189-383, limits assumed) (assay: primary ELISA; signal over HSA control). On RLU: test concentration or dose not given here.
T1 construct: domain: apical domain
T1 sequence (P02786 189-383 limits assumed): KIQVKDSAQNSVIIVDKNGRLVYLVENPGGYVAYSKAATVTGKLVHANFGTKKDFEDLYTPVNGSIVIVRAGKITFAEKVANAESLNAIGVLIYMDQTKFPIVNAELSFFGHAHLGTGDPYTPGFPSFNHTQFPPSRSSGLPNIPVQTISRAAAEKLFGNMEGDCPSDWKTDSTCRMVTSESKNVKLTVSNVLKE
For B1, the “Apical domain:HSA” value was 146 ratio. With B2 the “Apical domain:HSA” value was 612 ratio. B3 was tested, and the “Apical domain:HSA” value was 319 ratio. B4 was tested, and the “Apical domain:HSA” value was 57 ratio. For B5, the “Apical domain:HSA” value was 88 ratio. With B6 the “Apical domain:HSA” value was 79 ratio. In the case of B7, the “Apical domain:HSA” value is reported as 153 ratio. With B8 the “Apical domain:HSA” value was 403 ratio. In the case of B9, the “Apical domain:HSA” value is reported as 184 ratio. In the case of B10, the “Apical domain:HSA” value is reported as 379 ratio. For B11, the “Apical domain:HSA” value was 318 ratio. With B12 the “Apical domain:HSA” value was 52 ratio. For B13, the “Apical domain:HSA” value was 124 ratio. For B14, the “Apical domain:HSA” value was 417 ratio. For B15, the “Apical domain:HSA” value was 269 ratio. For B16, the “Apical domain:HSA” value was 186 ratio. With B17 the “Apical domain:HSA” value was 147 ratio. For B18, the “Apical domain:HSA” value was 193 ratio. For B19, the “Apical domain:HSA” value was 155 ratio. For B20, the “Apical domain:HSA” value was 398 ratio. B21 was tested, and the “Apical domain:HSA” value was 79 ratio. With B22 the “Apical domain:HSA” value was 516 ratio. For B23, the “Apical domain:HSA” value was 370 ratio. In the case of B24, the “Apical domain:HSA” value is reported as 176 ratio. B25 was tested, and the “Apical domain:HSA” value was 347 ratio. In the case of B26, the “Apical domain:HSA” value is reported as 165 ratio. In the case of B27, the “Apical domain:HSA” value is reported as 288 ratio. B28 was tested, and the “Apical domain:HSA” value was 495 ratio. For B29, the “Apical domain:HSA” value was 340 ratio. B30 was tested, and the “Apical domain:HSA” value was 284 ratio.

These binders were tested against T2, human CD71 extracellular domain (human, UniProt P02786 89-760) (assay: primary ELISA; signal over HSA control). On RLU: test concentration or dose not given here.
T2 construct: also called hCD71; CD71-ECD
T2 sequence (P02786 89-760): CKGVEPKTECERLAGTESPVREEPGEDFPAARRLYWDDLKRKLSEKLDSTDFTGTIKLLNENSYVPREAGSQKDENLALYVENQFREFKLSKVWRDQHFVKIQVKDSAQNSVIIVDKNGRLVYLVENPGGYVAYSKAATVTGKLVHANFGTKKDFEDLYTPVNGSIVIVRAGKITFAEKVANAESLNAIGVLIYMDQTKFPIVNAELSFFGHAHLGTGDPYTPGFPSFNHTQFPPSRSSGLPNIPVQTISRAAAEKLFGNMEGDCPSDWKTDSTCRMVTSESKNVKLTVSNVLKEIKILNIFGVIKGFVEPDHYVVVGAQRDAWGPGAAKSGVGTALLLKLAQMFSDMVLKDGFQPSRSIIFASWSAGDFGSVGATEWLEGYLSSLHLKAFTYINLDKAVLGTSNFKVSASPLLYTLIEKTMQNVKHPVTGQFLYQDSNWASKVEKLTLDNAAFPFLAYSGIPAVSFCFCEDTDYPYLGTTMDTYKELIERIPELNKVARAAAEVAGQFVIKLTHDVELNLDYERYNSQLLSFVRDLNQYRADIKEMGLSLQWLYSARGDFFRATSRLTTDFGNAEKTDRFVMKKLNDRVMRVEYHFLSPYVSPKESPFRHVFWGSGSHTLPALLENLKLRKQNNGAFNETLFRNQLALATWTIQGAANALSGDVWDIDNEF
With B1 the “hCD71:HSA” value was 122 ratio. With B2 the “hCD71:HSA” value was 392 ratio. For B3, the “hCD71:HSA” value was 210 ratio. In the case of B4, the “hCD71:HSA” value is reported as 58 ratio. With B5 the “hCD71:HSA” value was 89 ratio. B6 was tested, and the “hCD71:HSA” value was 94 ratio. In the case of B7, the “hCD71:HSA” value is reported as 112 ratio. In the case of B8, the “hCD71:HSA” value is reported as 313 ratio. In the case of B9, the “hCD71:HSA” value is reported as 169 ratio. For B10, the “hCD71:HSA” value was 46 ratio. For B11, the “hCD71:HSA” value was 261 ratio. With B12 the “hCD71:HSA” value was 54 ratio. With B13 the “hCD71:HSA” value was 126 ratio. For B14, the “hCD71:HSA” value was 305 ratio. For B15, the “hCD71:HSA” value was 211 ratio. For B16, the “hCD71:HSA” value was 195 ratio. With B17 the “hCD71:HSA” value was 168 ratio. B18 was tested, and the “hCD71:HSA” value was 108 ratio. In the case of B19, the “hCD71:HSA” value is reported as 117 ratio. In the case of B20, the “hCD71:HSA” value is reported as 167 ratio. B21 was tested, and the “hCD71:HSA” value was 86 ratio. With B22 the “hCD71:HSA” value was 501 ratio. In the case of B23, the “hCD71:HSA” value is reported as 287 ratio. With B24 the “hCD71:HSA” value was 13 ratio. With B25 the “hCD71:HSA” value was 247 ratio. For B26, the “hCD71:HSA” value was 116 ratio. In the case of B27, the “hCD71:HSA” value is reported as 227 ratio. With B28 the “hCD71:HSA” value was 402 ratio. B29 was tested, and the “hCD71:HSA” value was 171 ratio. With B30 the “hCD71:HSA” value was 225 ratio.

What follows are binders tested against T1, human apical domain of CD71 (assay: primary ELISA; further: test concentration or dose not given here).
An RLU of 5.66e+06 RLU was found for B1 in this work. An RLU of 3.52e+06 RLU was found for B2 in this work. An RLU of 5.5e+06 RLU was found for B3 in this work. An RLU of 6.56e+06 RLU was found for B4 in this work. An RLU of 4.35e+06 RLU was found for B5 in this work. An RLU of 3.11e+06 RLU was found for B6 in this work. An RLU of 6e+06 RLU was found for B7 in this work. An RLU of 4.03e+06 RLU was found for B8 in this work. An RLU of 3.57e+06 RLU was found for B9 in this work. An RLU of 3.2e+06 RLU was found for B10 in this work. An RLU of 6.36e+06 RLU was found for B11 in this work. An RLU of 6.32e+06 RLU was found for B12 in this work. An RLU of 3.58e+06 RLU was found for B13 in this work. An RLU of 6.17e+06 RLU was found for B14 in this work. An RLU of 4.59e+06 RLU was found for B15 in this work. An RLU of 5.9e+06 RLU was found for B16 in this work. An RLU of 2.82e+06 RLU was found for B17 in this work. An RLU of 3.47e+06 RLU was found for B18 in this work. An RLU of 5.16e+06 RLU was found for B19 in this work. An RLU of 4.2e+06 RLU was found for B20 in this work. An RLU of 6.18e+06 RLU was found for B21 in this work. An RLU of 3.61e+06 RLU was found for B22 in this work. An RLU of 4.98e+06 RLU was found for B23 in this work. An RLU of 5.95e+06 RLU was found for B24 in this work. An RLU of 6.23e+06 RLU was found for B25 in this work. An RLU of 3.23e+06 RLU was found for B26 in this work. An RLU of 5.66e+06 RLU was found for B27 in this work. An RLU of 3.93e+06 RLU was found for B28 in this work. An RLU of 5.88e+06 RLU was found for B29 in this work. An RLU of 6.2e+06 RLU was found for B30 in this work.

The binders below were run against T2, human CD71 extracellular domain (assay: primary ELISA; further: test concentration or dose not given here).
An RLU of 4.72e+06 RLU was found for B1 in this work. An RLU of 2.25e+06 RLU was found for B2 in this work. An RLU of 3.62e+06 RLU was found for B3 in this work. An RLU of 6.63e+06 RLU was found for B4 in this work. An RLU of 4.4e+06 RLU was found for B5 in this work. An RLU of 3.73e+06 RLU was found for B6 in this work. An RLU of 4.37e+06 RLU was found for B7 in this work. An RLU of 3.13e+06 RLU was found for B8 in this work. An RLU of 3.26e+06 RLU was found for B9 in this work. An RLU of 3.9e+06 RLU was found for B10 in this work. An RLU of 5.23e+06 RLU was found for B11 in this work. An RLU of 6.6e+06 RLU was found for B12 in this work. An RLU of 3.64e+06 RLU was found for B13 in this work. An RLU of 4.51e+06 RLU was found for B14 in this work. An RLU of 3.6e+06 RLU was found for B15 in this work. An RLU of 6.19e+06 RLU was found for B16 in this work. An RLU of 3.22e+06 RLU was found for B17 in this work. An RLU of 1.95e+06 RLU was found for B18 in this work. An RLU of 3.9e+06 RLU was found for B19 in this work. An RLU of 1.76e+06 RLU was found for B20 in this work. An RLU of 6.71e+06 RLU was found for B21 in this work. An RLU of 3.51e+06 RLU was found for B22 in this work. An RLU of 3.86e+06 RLU was found for B23 in this work. An RLU of 4.43e+06 RLU was found for B24 in this work. An RLU of 4.44e+06 RLU was found for B25 in this work. An RLU of 2.26e+06 RLU was found for B26 in this work. An RLU of 4.46e+06 RLU was found for B27 in this work. An RLU of 3.2e+06 RLU was found for B28 in this work. An RLU of 2.97e+06 RLU was found for B29 in this work. An RLU of 4.91e+06 RLU was found for B30 in this work.
